Patent publication US20190343964A1 (SHIZUOKA PERFECTURE, published 2019)

How the values were obtained:
[1] = target: T1, soluble human B7-H4 recombinant protein (human, UniProt Q7Z7D3 25-259); assay: ELISA, hybridoma culture supernatant diluted 2 times on immobilized free form of B7-H4
T1 construct: also called a free form of B7-H4
T1 sequence: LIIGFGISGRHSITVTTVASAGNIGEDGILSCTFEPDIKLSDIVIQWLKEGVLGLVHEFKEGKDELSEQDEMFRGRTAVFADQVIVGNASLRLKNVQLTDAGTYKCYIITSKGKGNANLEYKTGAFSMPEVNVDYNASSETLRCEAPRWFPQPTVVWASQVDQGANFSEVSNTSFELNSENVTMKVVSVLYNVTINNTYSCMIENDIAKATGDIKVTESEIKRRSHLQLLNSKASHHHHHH
Procedure: Specifically, the free form of B7-H4 was added to a 96 well Immobilizer Amino Plate (Thermo Fisher Scientific) and incubated at room temperature for 2 hours to immobilize the free form of B7-H4 on the plate surface. Simultaneously, wells with no immobilization of the free form of B7-H4 were prepared as negative control. After incubation, the antigen that was not immobilized was removed and the wells were filled with PBS containing 3% BSA and incubated at 4° C. overnight. In this step, nonspecific binding capacity to the plate surface was blocked to produce a plate for ELISA.
The culture supernatant of each of the plurality of hybridoma lines obtained in Example 2 was 2-times diluted with PBS containing 0.05% Tween20 to prepare a supernatant sample. The buffer was removed from the wells of the aforementioned plate for ELISA and then the supernatant sample was added and incubated at room temperature for 2 hours. The plate was washed to remove the unbound antibody and then a horseradish peroxidase (HRP) labeled anti-mouse immunoglobulin antibody (GE Healthcare) was added and incubated for 1 hour. The wells were washed, then a peroxidase substrate (BD Biosciences) was added and incubated for 30 minutes, and a sulfuric acid solution at a concentration of 0.1 M or higher was added to stop the color development. Whether an antibody that recognizes B7-H4 in a supernatant sample was contained was examined by measuring the absorption of the solution in each well at a wavelength of 450 nm.

[2] = target: T2, B7-H4 expressed on the membrane surface of cancer cells (human, UniProt Q7Z7D3 25-282); assay: cell-based or functional assay
T2 sequence (looked up): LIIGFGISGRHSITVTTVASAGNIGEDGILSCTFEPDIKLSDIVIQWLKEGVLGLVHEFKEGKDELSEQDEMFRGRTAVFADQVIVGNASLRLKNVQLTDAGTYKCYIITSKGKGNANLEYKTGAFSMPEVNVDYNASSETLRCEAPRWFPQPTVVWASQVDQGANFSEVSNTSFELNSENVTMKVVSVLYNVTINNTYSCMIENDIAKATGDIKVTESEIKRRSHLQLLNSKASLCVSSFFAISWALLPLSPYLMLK

| Binder | OD 450 nm [1] [OD 450 nm] | 50% maximum effective concentration (EC50) of cytotoxicity (% Lysis) to MDA-MB-468 cells, LDH release, with human peripheral blood mononuclear cells, 16 hours [2] [µg/mL] |
| --- | --- | --- |
| H4.051 (antibody, V domains shown, Mouse hybridoma monoclonal antibody; also called anti-B7-H4 monoclonal antibody produced from hybridoma clone #51) VH: EVQLQQSGAELVRSGASVKLSCTASGFNIKDFYVHWVKQRPEQGLEWIGWIDPAHVDTEYAPKFQGKTTMTADTSSNTAYLQLSSLTSEDSAVYYCNALLPRTMDYWG VL: DVVLTQTPLSLPVNVGDQASISCKSTKSLLNSDGFTYLDWYLQKPGQSPQLLIYLVSNRFSGVPDRFSGSGSGTDFTLKISRVEAEDLGVYYCFQSNYLPYTFG | 1.96 |  |
| H4.121 (antibody, V domains shown, Mouse hybridoma monoclonal antibody; also called anti-B7-H4 monoclonal antibody produced from hybridoma clone #121) VH: QVQLQQSGAELMKPGASVKISCKATGYTFSSYWIEWVKQRPGHGLEWIGEILHGSDSTNYNENFKGKATFTADTSSNTAYMRLSSLTSEDSAVYYCASHYYGSSPFAYWG VL: not shown | 2.02 |  |
| Fab-scFv according to the present invention (bispecific antibody) heavy: not shown light: NIQMTQSPSSLAVSAGEKVTMSCKSSHAVLYSSNQKNYLAWYQQKPGQSPKLLIYWASTRDSGVPDRFTGGGSGTDFTLTITNIQPEDLAVYYCHQYLSSWTFGGGTKVEIKRTVAAPSVFIFPPSDEQLKSGTASVVCLLNNFYPREAKVQWKVDNALQSGNSQESVTGQDSKDSTYSLSSTLALSKADYEKHKVYACEVTHQGLSSPVTKSFNRGEC |  | 0.013 |
| H4.209 (antibody, V domains shown, Mouse hybridoma monoclonal antibody; also called anti-B7-H4 monoclonal antibody produced from hybridoma clone #209) VH: EVKLVESGGGLVKPGGSLKLSCAASGFTFSNYALSWVRQTPEKRLEWVASISGGGSTYYPDSVKGRFIISRDNARNILYLQMSSLRSEDTAMYYCARGPSYDDYYFDVWG VL: not shown | 1.93 |  |
| H4.018 (antibody) chain 1: EVKLVESGGGLVKPGGSLKLSCAASGFTFSSYAMSWVRQTPEKRLEWVATISSGGNYTYYPDSVKGRFTISRDNAKNTLYLQMSSLRSEDTAMYYCARHRYDNNYDYYAMD chain 2: NIQMTQSPSSLAVSAGEKVTMSCKSSHAVLYSSNQKNYLAWYQQKPGQSPKLLIYWASTRDSGVPDRFTGGGSGTDFTLTITNIQPEDLAVYYCHQYLSSWTFGGGTKVEIK | 1.96 |  |
| H4.140 (antibody, V domains shown, Mouse hybridoma monoclonal antibody; also called anti-B7-H4 monoclonal antibody produced from hybridoma clone #140) VH: EVQLVESGGDLVKPGGSLKLSCAASGFTFSTYGMSWVRQTPDKRLEWVATISSGGNYTYYPDSVKGRFTISRDNAKNTLYLQMSSLKSEDTAMYYCARPYGNHFDYWG VL: DIQMTQSPASLAASVGETVTITCRASENIYYSLAWYQQKQGKSPQLLIYNANSLEDGVPSRFSGSGSGTQYSMKINSMQPEDTATYFCKQAYDVPYTFG | 1.06 |  |
